Legend:
RXR-alpha = RXR-alpha (UniProt P19793 P19793:1-462); test: EMSA; RXR alone did not produce the receptor-specific shift; conditions: tags: reticulocyte lysate from pBluescript(II)(SK) RXR-alpha cDNA; label: end-labeled
From the text: (§1) In vitro translated RAR-α was produced essentially as described under Example 8, except that ^35S-labeled methoinine was omitted. In vitro translated RXR-α was similarly produced using a pBluescript(II)(SK)-based vector containing the RXR-α cDNA described by Mangelsdorf, et al. in *Nature* 345:224–229 (1990) as the template for generating in vitro transcripts. The labeled RAR-α and RXR-α, alone or in combination, or prebound with AGN 193109 (10^-6M) either alone or in combination, were allowed to interact with an end-labeled DR-5 RARE double-stranded probe having the sequence 5'-[…]-3' (SEQ ID NO:1). The binding mixture was electrophoresed on a non-denaturing polyacrylamide gel and autoradiographed according to standard laboratory procedures. A single retarded species appearing on the autoradiograph that was common to all the lanes on the gel represented an undefined probe-binding factor present in the reticulocyte lysate. Only the RAR/RXR combination gave rise to a retinoid receptor-specific retarded species. Neither RAR alone nor RXR alone bound the probe to produce this shifted species.

RAR-alpha = target: T1, RAR-alpha (UniProt P10276 P10276:1-462); test: EMSA; RAR alone did not produce the receptor-specific shift; conditions: tags: TNT reticulocyte lysate from pGEM3Z RAR-alpha cDNA; label: end-labeled
T1 sequence: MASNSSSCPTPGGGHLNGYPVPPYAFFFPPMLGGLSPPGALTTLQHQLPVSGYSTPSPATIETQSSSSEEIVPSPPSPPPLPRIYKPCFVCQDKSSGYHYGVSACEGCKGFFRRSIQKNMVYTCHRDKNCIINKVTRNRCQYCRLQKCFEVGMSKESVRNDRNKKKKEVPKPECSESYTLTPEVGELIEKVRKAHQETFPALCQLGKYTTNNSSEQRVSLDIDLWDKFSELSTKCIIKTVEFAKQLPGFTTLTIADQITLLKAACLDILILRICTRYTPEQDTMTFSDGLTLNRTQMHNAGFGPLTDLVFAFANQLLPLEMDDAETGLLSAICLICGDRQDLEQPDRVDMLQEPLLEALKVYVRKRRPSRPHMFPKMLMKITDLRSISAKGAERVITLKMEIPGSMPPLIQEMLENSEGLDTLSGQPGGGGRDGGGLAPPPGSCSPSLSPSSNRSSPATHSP
From the text: as §1

Chain of RXR-alpha (P19793 whole entry, one chain of several): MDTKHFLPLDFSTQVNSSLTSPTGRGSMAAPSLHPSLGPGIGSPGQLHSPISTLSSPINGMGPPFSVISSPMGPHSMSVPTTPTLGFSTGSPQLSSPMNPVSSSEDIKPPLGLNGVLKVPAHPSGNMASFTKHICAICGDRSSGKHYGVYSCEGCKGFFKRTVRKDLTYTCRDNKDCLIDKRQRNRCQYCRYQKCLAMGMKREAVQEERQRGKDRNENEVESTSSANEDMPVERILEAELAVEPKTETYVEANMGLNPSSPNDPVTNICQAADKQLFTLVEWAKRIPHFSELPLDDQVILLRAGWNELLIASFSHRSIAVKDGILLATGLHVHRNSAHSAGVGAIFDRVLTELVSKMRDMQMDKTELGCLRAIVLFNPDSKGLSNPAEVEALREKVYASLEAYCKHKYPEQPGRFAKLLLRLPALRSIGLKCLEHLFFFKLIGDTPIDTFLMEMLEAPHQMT

B1: DR-5 RARE probe (dsDNA)
DNA 1: TCAGGTCACCAGGAGGTCAGA
DNA 2: TCTGACCTCCTGGTGACCTGA
binding result (RXR-alpha): no binding
binding result (RAR-alpha): no binding

— patent publication US5958954, “Synthesis and use of retinoid compounds having negative hormone and/or antagonist activities” (Allergan Sales, Inc.)
